The text below walks through data of patent US20230348630A1 (BEIJING MABWORKS BIOTECH, published 2023).

Experiment [1] deals with T1, human BCMA on HEK293A/human BCMA cells (human, UniProt Q02223 1-184).
T1 sequence: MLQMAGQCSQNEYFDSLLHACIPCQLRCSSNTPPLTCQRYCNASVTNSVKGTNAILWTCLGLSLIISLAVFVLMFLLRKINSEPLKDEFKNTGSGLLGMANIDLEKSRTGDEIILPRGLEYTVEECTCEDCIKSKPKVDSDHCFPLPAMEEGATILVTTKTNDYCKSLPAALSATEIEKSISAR
Briefly: flow cytometry on HEK293A/human BCMA cells. The method, then: (§1) The anti-BCMA antibody's binding capability to cell surface BCMAs was tested by FACS. Briefly, HEK293A/human BCMA cells, HEK293A/monkey BCMA cells and HEK293A/mouse BCMA cells, as generated in Example 1, were collected, digested with trypsin, and subjected to centrifugation at 300 g for 5 min. The cells were suspended in PBS, and subjected to centrifugation again. The cells were re-suspended in PBS with 2% FBS at the cell density at 4×10⁶/ml, and 50 μl cells were seeded onto a U-bottom plate. […] The plate was washed with 2% FBS-PBS for three times, added with 50 μl PE-labeled goat-anti-human IgG (H+L) (1: 500), and incubated at room temperature for 45 min. The plate was washed with 2% FBS-PBS again for three times, and added with 150 μl 2% FBS-PBS to suspend the cells. The plate was measured for cell fluorescence using a cytometry, and the data was processed with FlowJo and analyzed with GraphPad.

The target in experiment [2] is T1, human BCMA on HEK293A/human BCMA cells. The experiment in a line: flow cytometry on HEK293A/human BCMA cells in the presence of 1 µg/ml soluble human BCMA-his protein. As for the experimental part:
Briefly, 10⁵ HEK293A/human BCMA cells in 100 μl culture medium were seeded on a 96-well plate, and the plate was further added with 50 μl serially diluted antibody or PBS followed by the human BCMA-his proteins (Cat #: 10620-H08H, Sino Biological) at the final concentration of 1 μg/ml. After 1-h incubation at 4° C., the plate was washed with PBS for three times, added with APC-goat-anti-mouse IgG (1:500 dilution, Cat #: 405308, BioLegend, US), inducted at 4° C. for 1 h, washed with PBS for three times, and measured for cell fluorescence using a FACS analyzer (BD).

In experiment [3] the target is T2, human TACI on HEK293A/human TACI cells (human, UniProt O14836 1-293).
T2 sequence: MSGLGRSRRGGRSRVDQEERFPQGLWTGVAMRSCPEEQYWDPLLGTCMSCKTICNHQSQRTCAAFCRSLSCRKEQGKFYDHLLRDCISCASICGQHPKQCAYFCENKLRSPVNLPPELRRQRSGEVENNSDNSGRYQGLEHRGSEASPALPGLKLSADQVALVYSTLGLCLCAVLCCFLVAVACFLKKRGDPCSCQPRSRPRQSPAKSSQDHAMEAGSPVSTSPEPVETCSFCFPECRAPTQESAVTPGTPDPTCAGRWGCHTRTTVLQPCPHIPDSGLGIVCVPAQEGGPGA
The experiment in a line: flow cytometry on HEK293A/human TACI cells.

Experiment [4] addresses T1, human BCMA on HEK293A/human BCMA cells. The experiment in a line: flow cytometry on HEK293A/human BCMA cells, without soluble BCMA. The method, then:
Briefly, 10⁵ HEK293A/human BCMA cells in 100 μl culture medium were seeded on a 96-well plate, and the plate […] After 1-h incubation at 4° C., the plate was washed with PBS for three times, added with APC-goat-anti-mouse IgG (1:500 dilution, Cat #: 405308, BioLegend, US), inducted at 4° C. for 1 h, washed with PBS for three times, and measured for cell fluorescence using a FACS analyzer (BD).

Experiment [5] concerns the target monkey BCMA on HEK293A/monkey BCMA cells (monkey, UniProt Q02223 1-184 (human entry)). Briefly: flow cytometry on HEK293A/monkey BCMA cells. The method, then:
as §1

Experiment [6] has as its target T3, mouse BCMA on HEK293A/mouse BCMA cells (mouse, UniProt O88472 1-185).
T3 sequence: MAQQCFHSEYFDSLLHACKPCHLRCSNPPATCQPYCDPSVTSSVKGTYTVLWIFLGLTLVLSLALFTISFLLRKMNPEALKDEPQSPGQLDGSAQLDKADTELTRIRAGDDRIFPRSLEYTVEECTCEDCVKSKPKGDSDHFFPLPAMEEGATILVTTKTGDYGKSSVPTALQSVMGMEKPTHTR
Briefly: flow cytometry on HEK293A/mouse BCMA cells. The method, then: as §1

Experiment [7] has as its target T4, human BAFFR on HEK293A/human BAFFR cells (human, UniProt Q96RJ3 1-184).
T4 sequence: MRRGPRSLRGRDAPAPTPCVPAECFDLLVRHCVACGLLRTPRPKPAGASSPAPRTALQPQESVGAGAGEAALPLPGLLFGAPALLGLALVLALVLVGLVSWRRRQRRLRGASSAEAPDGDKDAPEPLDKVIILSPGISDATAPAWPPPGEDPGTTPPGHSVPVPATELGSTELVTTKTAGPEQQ
The experiment in a line: flow cytometry on HEK293A/human BAFFR cells.

Experiment [8] has as its target T5, BCMA-his protein (Cat #: BCA-H522y, ACRO) (human, UniProt Q02223 1-54).
T5 construct: Bought recombinant protein; the construct is most likely only a soluble part of it; also called BCMA protein; human BCMA
T5 sequence: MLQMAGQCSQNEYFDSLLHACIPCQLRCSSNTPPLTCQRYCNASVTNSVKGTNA
Briefly: SPR (BIAcore 8K), antibody captured by anti-human Fc, BCMA protein as analyte. As for the experimental part: Briefly, the mouse anti-human Fc antibody (Cat #: BR100839, cytiva) was coupled to CMS biosensor chip. […] Chip regeneration was performed with 3 M MgCl₂.

Experiment [9] addresses T5, BCMA-his protein (Cat #: BCA-H522y, …). Briefly: ELISA, coated BCMA protein. The method, then: Briefly, an ELISA plate was coated with 100 μl 1 μg/ml BCMA protein (Cat #: BCA-H522y, ACRO) in PBS overnight at 4° C. Then, the plate was blocked with 250 μl PBST with 4% skimmed milk at room temperature for 1 h. […] The negative control well was added with PBST instead of the antibody. The plate was washed with PBST for three times, added with 100 μl HRP conjugated goat anti-human IgG (1:7000, Cat #: 31413, thermofisher), and incubated at room temperature for 1 h. The plate was washed again with PBST for four times, added with 100 μl freshly prepared TMB (Cat #: 555214, BD, USA), and left still for color development, which was terminated with 50 μl 10% H₂SO₄. The absorbance was read at 450 nm, and the data was processed and analyzed using GraphPad.

monkey BCMA on HEK293A/monkey BCMA cells, sequence (Q02223 other isoform, or with tags, fused parts or gaps): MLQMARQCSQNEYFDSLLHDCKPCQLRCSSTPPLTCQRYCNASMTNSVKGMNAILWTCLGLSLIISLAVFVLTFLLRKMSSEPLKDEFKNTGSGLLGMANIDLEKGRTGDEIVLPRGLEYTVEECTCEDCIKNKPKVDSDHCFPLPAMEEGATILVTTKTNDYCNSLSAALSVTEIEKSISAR

B1: anti-BCMA antibody A6-3, full-length human IgG1/kappa (antibody, V domains shown)
VH: QVQLVQSGAEVKKPGASVKVSCKASGYTFTNHIIHWVRQAPGQGLEWMGYINPYPGYHGYNDKFSGRATMTSDTSTSTVYMELSSLRSEDTAVYYCARDGYYRDQDVLDYWGQGTLVTVSS
VL: DIQMTQSPSSLSASVGDRVTITCKASQDISQYLNWYQQKPGKAPKLLIYYTSGLHPGVPSRFSGSGSGTDFTFTISSLEPEDIATYYCQQGYALPWTFGQGTKVEIKR
notes: Expressed in HEK293F cells, purified on Protein A
B1: the EC50 in [1] is 0.0415 µg/mL; in [5], 0.0986 µg/mL; in [9] it was 0.00733 µg/mL. Also, the entries for the “EC50 (read off the curve)” value in experiment [2] and in [4] were approximately 1 µg/mL and approximately 0.4 µg/mL, respectively. Further, the binding result is “no binding (tested: 100 µg/ml and 10 µg/ml)” in [3]; “no binding” in experiment [6]; “no binding (tested: 100 µg/ml and 10 µg/ml)” in [7]. For the same molecule, binding in [8] was characterised by a dissociation constant (Kd) of 0.132 nM.
